# Laboratory results taken from paper PMC9482650, “Quantitative fragmentomics allow affinity mapping of interactomes” (Nature Communications, 2022).
# Tests used:
# Experiment in all cases: holdup assay
# Design in all cases: key: below the threshold = too weak to quantify, mostly under pKd 3.1 to 4
# MPDZ_5, O75970 = target: T1, MPDZ_5, O75970
# T1 sequence (O75970 695-796, limits assumed, looked up): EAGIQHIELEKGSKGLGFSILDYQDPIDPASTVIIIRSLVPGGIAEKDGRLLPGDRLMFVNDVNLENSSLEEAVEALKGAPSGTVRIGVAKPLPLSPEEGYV
# GRIP1_7, Q9Y3R0 = target: T2, GRIP1_7, Q9Y3R0
# T2 sequence (Q9Y3R0 999-1096, limits assumed, looked up): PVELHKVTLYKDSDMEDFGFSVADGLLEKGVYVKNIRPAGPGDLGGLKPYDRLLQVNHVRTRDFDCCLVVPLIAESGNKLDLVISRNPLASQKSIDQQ
# MAGI3_2, Q5TCQ9 = target: MAGI3_2, Q5TCQ9
# Sequence of MAGI3_2, Q5TCQ9 (Q5TCQ9 398-503): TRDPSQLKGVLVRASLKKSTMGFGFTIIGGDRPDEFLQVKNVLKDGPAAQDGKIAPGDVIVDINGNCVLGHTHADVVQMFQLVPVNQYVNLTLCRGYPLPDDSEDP
# NHERF3_3, Q5T2W1 = target: T3, NHERF3_3, Q5T2W1
# T3 sequence (Q5T2W1 238-333, limits assumed, looked up): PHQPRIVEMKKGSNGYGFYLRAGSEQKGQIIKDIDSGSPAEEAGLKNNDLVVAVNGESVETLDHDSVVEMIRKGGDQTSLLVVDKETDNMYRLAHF
# DLG3_1, Q92796 = target: T4, DLG3_1, Q92796
# T4 sequence (Q92796 125-227, limits assumed, looked up): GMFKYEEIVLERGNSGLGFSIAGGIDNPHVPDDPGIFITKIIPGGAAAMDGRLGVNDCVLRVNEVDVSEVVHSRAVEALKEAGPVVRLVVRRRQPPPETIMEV
# SCRIB_2, Q14160 = target: SCRIB_2, Q14160
# Sequence of SCRIB_2, Q14160 (Q14160 857-960): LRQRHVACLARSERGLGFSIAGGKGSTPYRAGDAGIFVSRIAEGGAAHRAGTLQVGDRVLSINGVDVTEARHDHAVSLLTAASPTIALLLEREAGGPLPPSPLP
# DLG3_2, Q92796 = target: T5, DLG3_2, Q92796
# T5 sequence (Q92796 221-321, limits assumed, looked up): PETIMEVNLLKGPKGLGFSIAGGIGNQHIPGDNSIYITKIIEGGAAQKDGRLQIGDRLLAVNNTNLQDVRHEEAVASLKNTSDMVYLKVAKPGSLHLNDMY
# Inadl_5, Q8NI35 = target: Inadl_5, Q8NI35
# Sequence of Inadl_5, Q8NI35 (Q8NI35 673-780): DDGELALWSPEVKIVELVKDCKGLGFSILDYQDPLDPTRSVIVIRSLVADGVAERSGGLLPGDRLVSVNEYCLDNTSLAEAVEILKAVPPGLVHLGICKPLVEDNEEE
# DLG4_1, P78352 = target: DLG4_1, P78352
# Sequence of DLG4_1, P78352 (P78352 62-152): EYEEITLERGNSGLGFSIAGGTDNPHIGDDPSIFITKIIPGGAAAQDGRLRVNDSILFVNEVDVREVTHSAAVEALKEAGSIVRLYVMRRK
# MAGI2_6, Q86UL8 = target: MAGI2_6, Q86UL8
# Sequence of MAGI2_6, Q86UL8 (Q86UL8 1141-1229): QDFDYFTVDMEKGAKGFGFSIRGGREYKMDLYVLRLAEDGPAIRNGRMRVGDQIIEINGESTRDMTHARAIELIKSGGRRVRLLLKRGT
# TJP1_2, Q07157 = target: TJP1_2, Q07157
# Sequence of TJP1_2, Q07157 (Q07157 181-274): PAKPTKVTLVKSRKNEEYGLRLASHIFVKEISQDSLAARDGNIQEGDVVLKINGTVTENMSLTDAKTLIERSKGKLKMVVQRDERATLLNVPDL
# LIN7A, O14910 = target: T6, LIN7A, O14910
# T6 sequence (O14910 103-200, limits assumed, looked up): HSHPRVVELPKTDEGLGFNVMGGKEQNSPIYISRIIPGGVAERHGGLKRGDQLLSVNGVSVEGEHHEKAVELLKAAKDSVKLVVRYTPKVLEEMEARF
# NHERF3_4, Q5T2W1 = target: T7, NHERF3_4, Q5T2W1
# T7 sequence (Q5T2W1 373-468, limits assumed, looked up): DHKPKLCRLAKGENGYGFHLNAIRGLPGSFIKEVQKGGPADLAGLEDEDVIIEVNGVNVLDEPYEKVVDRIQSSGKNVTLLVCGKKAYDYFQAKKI
# CASK, O14936 = target: CASK, O14936
# Sequence of CASK, O14936 (O14936 487-570): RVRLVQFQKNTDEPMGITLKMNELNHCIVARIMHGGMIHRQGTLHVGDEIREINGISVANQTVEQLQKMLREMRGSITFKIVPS
# FRMPD2_3, Q68DX3 = target: FRMPD2_3, Q68DX3
# Sequence of FRMPD2_3, Q68DX3 (Q68DX3 1073-1166): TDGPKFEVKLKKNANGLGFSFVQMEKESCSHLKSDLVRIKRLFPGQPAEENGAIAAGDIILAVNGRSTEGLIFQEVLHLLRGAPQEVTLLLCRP
# GRID2IP_1, A4D2P6 = target: GRID2IP_1, A4D2P6
# Sequence of GRID2IP_1, A4D2P6 (A4D2P6 1-87): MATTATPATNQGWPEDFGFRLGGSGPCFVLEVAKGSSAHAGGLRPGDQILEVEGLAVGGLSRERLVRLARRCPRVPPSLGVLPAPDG
# PDZD2_2, O15018 = target: T8, PDZD2_2, O15018
# T8 sequence (O15018 329-429, limits assumed, looked up): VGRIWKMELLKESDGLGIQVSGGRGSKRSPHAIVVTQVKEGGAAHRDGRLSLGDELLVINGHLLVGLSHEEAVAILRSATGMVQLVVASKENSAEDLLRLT
# FRMPD2_2, Q68DX3 = target: FRMPD2_2, Q68DX3
# Sequence of FRMPD2_2, Q68DX3 (Q68DX3 944-1038): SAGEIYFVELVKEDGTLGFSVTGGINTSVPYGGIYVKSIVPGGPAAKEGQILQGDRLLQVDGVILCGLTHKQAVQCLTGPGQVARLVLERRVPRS
# Inadl_8, Q8NI35 = target: Inadl_8, Q8NI35
# Sequence of Inadl_8, Q8NI35 (Q8NI35 1425-1530): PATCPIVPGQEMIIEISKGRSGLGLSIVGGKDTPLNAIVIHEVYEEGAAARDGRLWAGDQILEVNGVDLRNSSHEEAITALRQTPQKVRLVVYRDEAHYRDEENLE
# HTRA3, P83110 = target: T9, HTRA3, P83110
# T9 sequence (P83110 354-453, limits assumed, looked up): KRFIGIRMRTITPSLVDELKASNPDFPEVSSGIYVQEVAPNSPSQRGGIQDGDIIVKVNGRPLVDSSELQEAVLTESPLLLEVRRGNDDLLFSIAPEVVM
# LAP2, Q96RT1 = target: LAP2, Q96RT1
# Sequence of LAP2, Q96RT1 (Q96RT1 other isoform, or with tags, fused parts or gaps): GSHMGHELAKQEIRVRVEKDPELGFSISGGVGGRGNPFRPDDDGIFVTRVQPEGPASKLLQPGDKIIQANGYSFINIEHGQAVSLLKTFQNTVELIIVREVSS
# RHPN1, Q8TCX5 = target: T10, RHPN1, Q8TCX5
# T10 sequence (Q8TCX5 508-602, limits assumed, looked up): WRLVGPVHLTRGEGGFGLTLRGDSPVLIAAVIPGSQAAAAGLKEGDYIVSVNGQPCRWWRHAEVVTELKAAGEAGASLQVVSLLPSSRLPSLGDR
# FRMPD2_1, Q68DX3 = target: FRMPD2_1, Q68DX3
# Sequence of FRMPD2_1, Q68DX3 (Q68DX3 770-861): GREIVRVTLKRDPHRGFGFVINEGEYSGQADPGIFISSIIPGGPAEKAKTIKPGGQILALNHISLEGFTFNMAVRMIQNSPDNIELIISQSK
# GORASP1, Q9BQQ3 = target: GORASP1, Q9BQQ3
# Sequence of GORASP1, Q9BQQ3 (Q9BQQ3 1-208): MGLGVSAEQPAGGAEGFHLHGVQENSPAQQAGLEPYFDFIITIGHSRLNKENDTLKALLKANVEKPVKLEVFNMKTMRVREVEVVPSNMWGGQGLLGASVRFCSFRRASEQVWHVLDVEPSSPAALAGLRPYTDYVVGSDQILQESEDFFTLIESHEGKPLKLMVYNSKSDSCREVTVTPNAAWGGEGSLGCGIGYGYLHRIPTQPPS
# GORASP2, Q9H8Y8 = target: GORASP2, Q9H8Y8
# SNTB1, Q13884 = target: T11, SNTB1, Q13884
# T11 sequence (Q13884 107-205, limits assumed, looked up): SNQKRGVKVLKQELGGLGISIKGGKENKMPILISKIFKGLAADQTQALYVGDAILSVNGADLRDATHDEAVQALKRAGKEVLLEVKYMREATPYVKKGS
# MAGI1_1, Q96QZ7 = target: MAGI1_1, Q96QZ7
# Sequence of MAGI1_1, Q96QZ7 (Q96QZ7 1-106): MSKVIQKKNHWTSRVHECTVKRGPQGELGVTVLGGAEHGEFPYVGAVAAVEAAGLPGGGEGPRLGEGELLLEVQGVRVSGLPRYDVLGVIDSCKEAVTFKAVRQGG
# [1] = plain residues with an end cap or a label only (N-terminal biotin on a linker: (peg)3)
# [2] = plain residues with an end cap or a label only (N-terminal biotin on a linker: ado-ado)
binder,measurement,setting,value
"RRRRSQSRESQC [HBV-HBc, P03193]",pKd,"MPDZ_5, O75970; [1]",below the threshold
same,pKd,"GRIP1_7, Q9Y3R0; [1]",below the threshold
same,pKd,"MAGI3_2, Q5TCQ9; [1]",4.64
same,pKd,"NHERF3_3, Q5T2W1; [1]",below the threshold
same,pKd,"DLG3_1, Q92796; [1]",3.59
same,pKd,"SCRIB_2, Q14160; [1]",below the threshold
same,pKd,"DLG3_2, Q92796; [1]",4.56
same,pKd,"Inadl_5, Q8NI35; [1]",below the threshold
same,pKd,"DLG4_1, P78352; [1]",4.31
same,pKd,"MAGI2_6, Q86UL8; [1]",below the threshold
same,pKd,"TJP1_2, Q07157; [1]",below the threshold
same,pKd,"LIN7A, O14910; [1]",below the threshold
same,pKd,"NHERF3_4, Q5T2W1; [1]",below the threshold
same,pKd,"CASK, O14936; [1]",below the threshold
same,pKd,"FRMPD2_3, Q68DX3; [1]",below the threshold
same,pKd,"GRID2IP_1, A4D2P6; [1]",below the threshold
same,pKd,"PDZD2_2, O15018; [1]",3.88
same,pKd,"FRMPD2_2, Q68DX3; [1]",below the threshold
same,pKd,"Inadl_8, Q8NI35; [1]",3.58
same,pKd,"HTRA3, P83110; [1]",3.58
same,pKd,"LAP2, Q96RT1; [1]",below the threshold
same,pKd,"RHPN1, Q8TCX5; [1]",below the threshold
same,pKd,"FRMPD2_1, Q68DX3; [1]",below the threshold
same,pKd,"GORASP1, Q9BQQ3; [1]",below the threshold
same,pKd,"GORASP2, Q9H8Y8; [1]",below the threshold
same,pKd,"SNTB1, Q13884; [1]",4.78
same,pKd,"MAGI1_1, Q96QZ7; [1]",below the threshold
"AEASVACSLC [PTGIR, P43119]",pKd,"MPDZ_5, O75970; [2]",below the threshold
same,pKd,"GRIP1_7, Q9Y3R0; [2]",below the threshold
same,pKd,"MAGI3_2, Q5TCQ9; [2]",below the threshold
same,pKd,"NHERF3_3, Q5T2W1; [2]",below the threshold
same,pKd,"DLG3_1, Q92796; [2]",below the threshold
same,pKd,"SCRIB_2, Q14160; [2]",below the threshold
same,pKd,"DLG3_2, Q92796; [2]",3.69
same,pKd,"Inadl_5, Q8NI35; [2]",below the threshold
same,pKd,"DLG4_1, P78352; [2]",below the threshold
same,pKd,"MAGI2_6, Q86UL8; [2]",below the threshold
same,pKd,"TJP1_2, Q07157; [2]",below the threshold
same,pKd,"LIN7A, O14910; [2]",below the threshold
same,pKd,"NHERF3_4, Q5T2W1; [2]",below the threshold
same,pKd,"CASK, O14936; [2]",below the threshold
same,pKd,"FRMPD2_3, Q68DX3; [2]",below the threshold
same,pKd,"GRID2IP_1, A4D2P6; [2]",below the threshold
same,pKd,"PDZD2_2, O15018; [2]",4.29
same,pKd,"FRMPD2_2, Q68DX3; [2]",below the threshold
same,pKd,"Inadl_8, Q8NI35; [2]",3.77
same,pKd,"HTRA3, P83110; [2]",4.15
same,pKd,"LAP2, Q96RT1; [2]",below the threshold
same,pKd,"RHPN1, Q8TCX5; [2]",below the threshold
same,pKd,"FRMPD2_1, Q68DX3; [2]",below the threshold
same,pKd,"GORASP1, Q9BQQ3; [2]",below the threshold
same,pKd,"GORASP2, Q9H8Y8; [2]",below the threshold
same,pKd,"SNTB1, Q13884; [2]",below the threshold
same,pKd,"MAGI1_1, Q96QZ7; [2]",below the threshold
"NTANRRTTPV [CACNG2, Q9Y698]",pKd,"MPDZ_5, O75970; [2]",below the threshold
same,pKd,"GRIP1_7, Q9Y3R0; [2]",below the threshold
same,pKd,"MAGI3_2, Q5TCQ9; [2]",5.16
same,pKd,"NHERF3_3, Q5T2W1; [2]",below the threshold
same,pKd,"DLG3_1, Q92796; [2]",3.61
same,pKd,"SCRIB_2, Q14160; [2]",below the threshold
same,pKd,"DLG3_2, Q92796; [2]",4.44
same,pKd,"Inadl_5, Q8NI35; [2]",below the threshold
same,pKd,"DLG4_1, P78352; [2]",4.5
same,pKd,"MAGI2_6, Q86UL8; [2]",3.53
same,pKd,"TJP1_2, Q07157; [2]",below the threshold
same,pKd,"LIN7A, O14910; [2]",below the threshold
same,pKd,"NHERF3_4, Q5T2W1; [2]",3.5
same,pKd,"CASK, O14936; [2]",below the threshold
same,pKd,"FRMPD2_3, Q68DX3; [2]",below the threshold
same,pKd,"GRID2IP_1, A4D2P6; [2]",below the threshold
same,pKd,"PDZD2_2, O15018; [2]",3.66
same,pKd,"FRMPD2_2, Q68DX3; [2]",3.59
same,pKd,"Inadl_8, Q8NI35; [2]",4.23
same,pKd,"HTRA3, P83110; [2]",below the threshold
same,pKd,"LAP2, Q96RT1; [2]",below the threshold
same,pKd,"RHPN1, Q8TCX5; [2]",below the threshold
same,pKd,"FRMPD2_1, Q68DX3; [2]",below the threshold
same,pKd,"GORASP1, Q9BQQ3; [2]",below the threshold
same,pKd,"GORASP2, Q9H8Y8; [2]",below the threshold
same,pKd,"SNTB1, Q13884; [2]",4.23
same,pKd,"MAGI1_1, Q96QZ7; [2]",below the threshold
"LKDDELKTKL [SLCO1A2, P46721]",pKd,"MPDZ_5, O75970; [2]",below the threshold
same,pKd,"GRIP1_7, Q9Y3R0; [2]",below the threshold
same,pKd,"MAGI3_2, Q5TCQ9; [2]",below the threshold
same,pKd,"NHERF3_3, Q5T2W1; [2]",4.17
same,pKd,"DLG3_1, Q92796; [2]",below the threshold
same,pKd,"SCRIB_2, Q14160; [2]",below the threshold
same,pKd,"DLG3_2, Q92796; [2]",below the threshold
same,pKd,"Inadl_5, Q8NI35; [2]",below the threshold
same,pKd,"DLG4_1, P78352; [2]",below the threshold
same,pKd,"MAGI2_6, Q86UL8; [2]",below the threshold
same,pKd,"TJP1_2, Q07157; [2]",below the threshold
same,pKd,"LIN7A, O14910; [2]",below the threshold
same,pKd,"NHERF3_4, Q5T2W1; [2]",4.91
same,pKd,"CASK, O14936; [2]",below the threshold
same,pKd,"FRMPD2_3, Q68DX3; [2]",below the threshold
same,pKd,"GRID2IP_1, A4D2P6; [2]",below the threshold
same,pKd,"PDZD2_2, O15018; [2]",below the threshold
same,pKd,"FRMPD2_2, Q68DX3; [2]",below the threshold
same,pKd,"Inadl_8, Q8NI35; [2]",below the threshold
same,pKd,"HTRA3, P83110; [2]",below the threshold
same,pKd,"LAP2, Q96RT1; [2]",below the threshold
same,pKd,"RHPN1, Q8TCX5; [2]",3.82
same,pKd,"FRMPD2_1, Q68DX3; [2]",below the threshold
same,pKd,"GORASP1, Q9BQQ3; [2]",below the threshold
same,pKd,"GORASP2, Q9H8Y8; [2]",below the threshold
same,pKd,"SNTB1, Q13884; [2]",below the threshold
same,pKd,"MAGI1_1, Q96QZ7; [2]",below the threshold
